B1: antibody A11 (antibody, human IgG1, V domains shown)
VH: QVQLVESGGGVVQPGRSLRLSCAASGFTFSSYGMHWVRQAPGKGLEWVAVIWYDVGNKYYIDSVKGRFTISRDNSKNTLYLQMNSLRAEDTAVYYCARDYYGSGSPRHFDYWGQGTLVTVSS
VL: DIQLTQSPSFLSASVGDRVTITCRASQGISSYLAWYQQKPGKAPKLLIYAASTLQSGVPSRFSGSGSGTEFTLTISSLQPEDFATYYCQQLNSYPPTFGQGTKVEIK
notes: full-length human IgG1 (CHO); also called aCTLA-4.31; L11H11
B2: antibody A5 (antibody, V domains shown)
VH: QVQLVESGGGVVQPGRSLRLSCAASGFTFSSYGMHWVRQAPGKGLEWVAVIWYDGNNKYYADSVKGRFTISRDNSKNTLYLQMYSLRAEDTAVYYCARGGILAAGIFDYWGQGTLVTVSS
VL: EIVLTQSPGTLSLSPGDRATLSCRASQSGSSSYLAWYQQKPGQAPRLLIYGASSRATGIPDRFSGSGSGTDFTLTISRLEPEDFAVYYCQQYGTSPFTSGPGTKVDIK
notes: full-length human IgG1 (CHO); also called aCTLA-4.28; CTLA4.A5
B3: antibody A1 (antibody, human IgG1, V domains shown)
VH: QVQLVESGGGVVQPGRSLRLSCAASGFTFSSFGMHWVRQAPGKGLEWVAVIWYDGRNKYYVDSVKGRFTISRDNSNNTLYLQMNSLRAEDTAVYYCARGEFFGEFFDYWGQGTLVTVSS
VL: B2 VL with D17E, R18G, G29F, S32N, S99F
B4: antibody A4 (antibody, V domains shown)
VH: QVQLVESGGGVVQPGRSLRISCAASGFTFSSYGIHWVRQAPGKGLQWVAVIWYDGRNKYYADSVKGRFTISRDNSKNTLYLQMNSLRAEDTAVYYCSRSGSFGAFDIWGQGTMVTVSS
VL: B2 VL
notes: full-length human IgG1 (CHO); also called aCTLA-4.29; L4H4
B5: antibody A9 (antibody, human IgG1, V domains shown)
VH: QVQLVESGGGVVQPGRSLRLSCAASGFTFSSHGMHWVRQAPGKGLEWVAVIWYDGSNKHYADSVKGRFTISRDNSKNTLYLQMNSLRAEDTAVYYCARGDILTGYYGYWGQGTLVTVSS
VL: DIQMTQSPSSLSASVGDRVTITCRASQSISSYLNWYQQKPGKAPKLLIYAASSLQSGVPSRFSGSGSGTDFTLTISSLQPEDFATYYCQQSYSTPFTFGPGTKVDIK
notes: full-length human IgG1 (CHO); also called aCTLA-4.24; L9H9
B6: antibody A8 (antibody, human IgG1, V domains shown)
VH: QVQLVESGGGVVQPGRSLRLSCAASGFTFSRYGMHWVRQAPGKGLEWVAVIWYDGRNKYYADSVKGRFTISRDNSKNTLYLQMNSLRAEDTALYSCARAGELGPFDYWGQGTLVTVSS
VL: EIVLTQSPGTLSLSPGERATLSCRASQSVSYLAWYQQKPGQAPRLLIYGASSRATGIPDRFSGSGSGTDFTLTISRLEPEDFAVYYCQQYGSSPWTFGQGTKVEIK
notes: full-length human IgG1 (CHO); also called aCTLA-4.1; CTLA4.A8
B7: antibody A6 (antibody, human IgG1, V domains shown)
VH: QVQLVESGGGVVQPGRSLRLSCAASGFTFSSYGMHWVRQAPGKGLEWVAVIWYDGSYKYYADSVKGRFTISRDDSKNTLYLQMSSLRAEDTAVYYCARAPHYAILTGYYEDYWGQGTLVTVSS
VL: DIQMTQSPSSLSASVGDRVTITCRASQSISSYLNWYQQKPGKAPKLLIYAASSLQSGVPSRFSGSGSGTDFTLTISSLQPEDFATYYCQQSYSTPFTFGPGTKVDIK
B8: antibody A7 (antibody, human IgG1, V domains shown)
VH: QVQLVESGGGVVQPGRSLRLSCAASGFTLSSFGMHWVRQAPGKGLEWVAVIWYDGSNKYYADSVKGRFIISRDNSKTALYLQMNSLRAEDTAVYYCARAHYFGAFDIWGQGTMVTVSS
VL: not shown
notes: full-length human IgG1 (CHO); also called aCTLA-4.3; CTLA4.A7
B9: antibody A10 (antibody, human IgG1, V domains shown)
VH: B6 VH with A23V, F29L, R31S, R56S, Y59H, Y80S, L93V, S95Y, A99G, E101Q
VL: not shown
notes: full-length human IgG1 (CHO); also called aCTLA-4.22; L10H10
B10: antibody A2 (antibody, human IgG1, V domains shown)
VH: QVQLVESGGGVVQPGRSLRLSCAASGFTFSNYGMNWVRQAPGKGLEWVAVIWYDGRNKHYADSVKGRFTISRDNSKNTLYLQMNSLRAEDTAVYYCARGGDWGPYFDYWGQGTLVTVSS
VL: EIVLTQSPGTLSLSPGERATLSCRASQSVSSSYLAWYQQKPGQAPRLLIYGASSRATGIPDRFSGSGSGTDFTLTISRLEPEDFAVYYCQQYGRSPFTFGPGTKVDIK
notes: full-length human IgG1 (CHO); also called aCTLA-4.4; CTLA4.A2
B11: antibody A3 (antibody, human IgG1, V domains shown)
VH: B10 VH with A23I, N31S, N35H, I51N, R56S, D101V
VL: not shown
notes: full-length human IgG1 (CHO); also called aCTLA-4.2; L3H3
B12: antibody A13 (antibody, human IgG1, V domains shown)
VH: B10 VH with N31S, N35H, H59D, F68I, D101L, W102L
VL: not shown
B13: GIGA-564 (antibody, V domains shown)
VH: QVQLVESGGGVVQPGRSLRLSCAASGFTFSSYGMHWVRQAPGTGLEWVAVIWYEGRNKYYADPVKGRFTISRDNSKNTLYLQMNSLRDDDTAVYYCARAGDLGAFDIWGQGTMVTVSSA
VL: not shown
notes: fucosylation differs between lots (77-95 %); also called antibody A14; aCTLA-4.15
B14: Ipilimumab analog (antibody, human IgG1, V domains shown)
VH: QVQLVESGGGVVQPGRSLRLSCAASGFTFSSYTMHWVRQAPGKGLEWVTFISYDGNNKYYADSVKGRFTISRDNSKNTLYLQMNSLRAEDTAIYYCARTGWLGPFDYWGQGTLVTVSSA
VL: not shown
notes: also called Ipi analog; in-house produced ipilimumab

Where a chain is given by its changes, count along the chain named.

For the first experiment, the target named is human CTLA-4 expressed on cells (human, UniProt P16410 36-223). Put plainly: cell-based or functional assay.
Sequence of human CTLA-4 expressed on cells (P16410 36-223 limits assumed): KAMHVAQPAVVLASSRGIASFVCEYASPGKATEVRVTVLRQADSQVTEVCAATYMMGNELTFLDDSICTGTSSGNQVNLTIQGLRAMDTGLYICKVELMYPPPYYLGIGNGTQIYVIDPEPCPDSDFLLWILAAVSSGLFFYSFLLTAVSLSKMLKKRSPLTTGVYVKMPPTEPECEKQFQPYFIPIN
Consider B1, for which the “Promega assay antagonist (EC50. ug/mL)” value was 0.42 µg/mL.

Regarding B2, the “Promega assay antagonist (EC50. ug/mL)” value is 0.18 µg/mL.

Take B3: the “Promega assay antagonist (EC50. ug/mL)” value was 0.13 µg/mL.

B4: the “Promega assay antagonist (EC50. ug/mL)” value was determined as 0.15 µg/mL.

Take B5: the “Promega assay antagonist (EC50. ug/mL)” value was determined as 0.19 µg/mL.

For B6, the “Promega assay antagonist (EC50. ug/mL)” value turned out to be 0.15 µg/mL.

As for B7, the “Promega assay antagonist (EC50. ug/mL)” value stood at 0.18 µg/mL.

Regarding B8, the “Promega assay antagonist (EC50. ug/mL)” value is 0.17 µg/mL.

As to B9, the “Promega assay antagonist (EC50. ug/mL)” value worked out at 0.26 µg/mL.

As for B10, the “Promega assay antagonist (EC50. ug/mL)” value was 0.12 µg/mL.

Take B11: the “Promega assay antagonist (EC50. ug/mL)” value is 0.18 µg/mL.

Regarding B12, the “Promega assay antagonist (EC50. ug/mL)” value came to 0.09 µg/mL.

The target in another experiment is T1, recombinant human CTLA-4-Fc (human, UniProt P16410 36-162).
T1 construct: bought Fc chimera; also called rhCTLA-4-Fc; rhCTLA-4-Fc chimera; Fc part of the bought chimera not given
T1 sequence (P16410 36-162): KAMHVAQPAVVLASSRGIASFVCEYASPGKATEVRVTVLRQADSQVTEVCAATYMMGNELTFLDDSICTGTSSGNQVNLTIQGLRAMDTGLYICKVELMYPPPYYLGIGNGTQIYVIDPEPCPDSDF
The experiment in a line: blocking ELISA: plate-bound rhCTLA-4-Fc, mAb titrated, rhCD86-His binding detected. On the procedure: (§1) Plates were coated with rhCTLA-4-Fc and then blocked with 1×PBST with 5% w/v nonfat dry milk. After blocking a dilution series of the indicated antibody was added to the plate.
Regarding B2, the CD86% inhibition came out at 90.6%.

In the case of B13, the CD86% inhibition is 54.5%.

Regarding B8, the CD86% inhibition is 78.8%.

On to B10, for which the CD86% inhibition amounted to 91.5%.

The target of a further experiment is T2, mouse CTLA-4 (mouse, UniProt P09793 36-162, limits assumed).
T2 construct: antigen of the anti-mouse CTLA-4 BLI measurements; also called murine CTLA-4
The experiment in a line: BLI (Octet), captured mAb, soluble mouse CTLA-4. On the procedure: The binding specificity and affinity of each full-length antibody towards CTLA-4 were determined using biolayer interferometry (BLI) and/or surface plasmon resonance (SPR). Anti-cyno CTLA-4 and anti-mouse CTLA-4 affinities were tested using ForteBio (BLI). Anti-human CTLA-4 affinities were measured using Carterra (SPR).
For BLI, antibodies were loaded onto an Anti-Human IgG Fc (AHC) biosensor using the Octet Red96 system (ForteBio). Loaded biosensors were dipped into antigen dilutions beginning at 300 nM, with 6 serial dilutions at 1:3. Kinetic analysis was performed using a 1:1 binding model and global fitting.
(In BLI a coated tip is dipped into the sample, and binding shifts an interference pattern.)
For B1, the binding result is listed as “no binding (tested: antigen dilutions beginning at 300 nM)”.

Take B4: the binding result is on record as “no binding (tested: antigen dilutions beginning at 300 nM)”.

For B5, the binding result is listed as “no binding (tested: antigen dilutions beginning at 300 nM)”.

B6: the binding result was “no binding (tested: antigen dilutions beginning at 300 nM)”.

Regarding B14, the binding result was “no binding (tested: antigen dilutions beginning at 300 nM)”.

In the case of B8, the binding result is listed as “no binding (tested: antigen dilutions beginning at 300 nM)”.

B9: the binding result was “no binding (tested: antigen dilutions beginning at 300 nM)”.

Turning to B10, the binding result is given as “no binding (tested: antigen dilutions beginning at 300 nM)”.

Turning to B11, the binding result is listed as “no binding (tested: antigen dilutions beginning at 300 nM)”.

The target in the next experiment is T1, recombinant human CTLA-4-Fc. Put plainly: blocking ELISA: plate-bound rhCTLA-4-Fc, mAb titrated, rhCD80-His binding detected. As to the method: as §1
Background: An ELISA detects its analyte on a solid surface through an enzyme-linked reagent.
Turning to B2, the CD80% inhibition was determined as 96.3%.

Turning to B8, the CD80% inhibition came out at 92.1%.

In the case of B10, the CD80% inhibition came out at 95.4%.
